Reference: patent US20070031511A1, “Method of treatment” (priority 2003, published 2007)

Legend:
[1] = biological target: Ggly receptor on IMGE-5 cells; test: cell-based or functional assay
[2] = biological target: Ggly receptor on IMGE-5 cells; test: [125I]-Ggly binding to IMGE-5 cells in the presence of 2 moles Bi3+/mole Ggly

B1: glycine-extended gastrin17 (Ggly) (peptide)
peptide: XGPWLEEEEEAYGWMDFG
modifications: N-terminal pyroglutamate (Z); 125I-iodinated (IODO-GEN) in the receptor binding assay
B1 gave an ED50 (nM), proliferation of IMGE cells, thymidine uptake [1] of 0.8 nM and a % inhibition of binding by bismuth ions [2] of 50%.
